T1: human ALK2 extracellular domain with C-terminal His tag (E. coli) (human, UniProt Q04771 21-123)
T1 construct: Expressed in E. coli SHuffle T7, purified to a single band of 12 kDa; also called ALK2-ECD; human ALK2-ECD; not shown: C-terminal His tag from pET-28b(+)
T1 sequence: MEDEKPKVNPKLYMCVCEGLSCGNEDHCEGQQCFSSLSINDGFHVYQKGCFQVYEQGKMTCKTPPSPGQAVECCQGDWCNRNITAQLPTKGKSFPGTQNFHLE

B1: humanized hA2-27D-H2/L2 (IgG1 LALA) (antibody)
heavy: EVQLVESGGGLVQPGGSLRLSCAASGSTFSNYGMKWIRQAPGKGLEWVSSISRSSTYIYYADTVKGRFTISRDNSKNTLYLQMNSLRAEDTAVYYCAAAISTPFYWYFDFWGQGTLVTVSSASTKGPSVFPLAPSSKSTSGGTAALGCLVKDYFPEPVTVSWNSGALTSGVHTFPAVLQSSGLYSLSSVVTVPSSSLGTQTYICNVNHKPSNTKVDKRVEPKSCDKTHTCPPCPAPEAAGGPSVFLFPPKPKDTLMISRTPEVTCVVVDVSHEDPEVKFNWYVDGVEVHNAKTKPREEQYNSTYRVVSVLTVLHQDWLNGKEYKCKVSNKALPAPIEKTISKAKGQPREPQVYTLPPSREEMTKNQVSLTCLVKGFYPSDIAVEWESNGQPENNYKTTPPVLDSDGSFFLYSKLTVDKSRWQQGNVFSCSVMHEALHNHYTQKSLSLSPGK
light: EIVLTQSPGTLSLSPGERATLSCLASSSVSYMTWYQQKPGQSPRLWIYGTSNLASGVPDRFSGSGSGTDFTLTISRLEPEDFAVYYCLHLTSYPPYTFGQGTKVEIKRAVAAPSVFIFPPSDEQLKSGTASVVCLLNNFYPREAKVQWKVDNALQSGNSQESVTEQDSKDSTYSLSSTLTLSKADYEKHKVYACEVTHQGLSSPVTKSFNRGEC
notes: also called humanized A2-27D-H2/L2 (IgG1 LALA); humanized A2-27D antibody (LALA)
B2: humanized hA2-27D-H3/L4 (IgG1 LALA) (antibody)
heavy: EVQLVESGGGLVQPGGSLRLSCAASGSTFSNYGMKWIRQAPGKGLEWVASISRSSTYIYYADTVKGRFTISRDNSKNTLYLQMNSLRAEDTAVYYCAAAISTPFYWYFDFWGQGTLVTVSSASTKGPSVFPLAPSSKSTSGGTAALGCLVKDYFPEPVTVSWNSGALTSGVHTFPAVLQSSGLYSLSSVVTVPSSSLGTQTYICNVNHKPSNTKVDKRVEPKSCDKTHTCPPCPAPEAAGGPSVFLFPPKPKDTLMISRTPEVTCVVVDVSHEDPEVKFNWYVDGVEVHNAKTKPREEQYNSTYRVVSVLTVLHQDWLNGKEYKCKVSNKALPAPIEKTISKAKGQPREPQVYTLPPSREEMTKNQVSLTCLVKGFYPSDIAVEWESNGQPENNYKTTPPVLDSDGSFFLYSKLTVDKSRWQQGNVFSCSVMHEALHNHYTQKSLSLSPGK
light: EIVLTQSPGTMSASPGERVTLSCLASSSVSYMTWYQQKPGASPRLWIYGTSNLASGVPDRFSGSGSGTDYTLTISRMEPEDFATYYCLHLTSYPPYTFGAGTKLELKRAVAAPSVFIFPPSDEQLKSGTASVVCLLNNFYPREAKVQWKVDNALQSGNSQESVTEQDSKDSTYSLSSTLTLSKADYEKHKVYACEVTHQGLSSPVTKSFNRGEC
B3: humanized hA2-15A-H4/L6 (IgG2) (antibody)
heavy: EVQLVESGGGLVQPGGSLRLSCAASGFTFSHYYMAWVRQAPGKGLEWVASITNSGGSINYRDSVKGRFTISRDNAKSTLYLQMNSLRAEDTATYYCTREGGENYGGYPPFAYWGQGTLVTVSSASTKGPSVFPLAPCSRSTSESTAALGCLVKDYFPEPVTVSWNSGALTSGVHTFPAVLQSSGLYSLSSVVTVPSSNFGTQTYTCNVDHKPSNTKVDKTVERKCCVECPPCPAPPVAGPSVFLFPPKPKDTLMISRTPEVTCVVVDVSHEDPEVQFNWYVDGVEVHNAKTKPREEQFNSTFRVVSVLTVVHQDWLNGKEYKCKVSNKGLPAPIEKTISKTKGQPREPQVYTLPPSREEMTKNQVSLTCLVKGFYPSDIAVEWESNGQPENNYKTTPPMLDSDGSFFLYSKLTVDKSRWQQGNVFSCSVMHEALHNHYTQKSLSLSPGK
light: DIVLTQSPDSLAVSLGERATINCRANQGVSLSRYNLMHWYQQKPGQKPKLLIYRSSNLAQGIPARFSGSGSGTDFTLTISSVQADDIAVYYCQQSRESPFTFGQGTKLELKRAVAAPSVFIFPPSDEQLKSGTASVVCLLNNFYPREAKVQWKVDNALQSGNSQESVTEQDSKDSTYSLSSTLTLSKADYEKHKVYACEVTHQGLSSPVTKSFNRGEC
notes: Human IgG2, kappa; also called humanized A2-15A-H4/L6 (IgG2); humanized A2-15A antibody (IgG2)

biological target: T1, human ALK2 extracellular domain with …; assay: SPR, Biacore T200; antibody captured by anti-human IgG (Fc), antigen as analyte; 1:1 binding model
Procedure: The dissociation constants of humanized hA2-15A-H4/L6 (IgG2) prepared in Example 11)-4, and humanized hA2-27D-H2/L2 (IgG1 LALA) and humanized hA2-27D-H3/L4 (IgG1 LALA) prepared in Example 12)-4 for the antigen (human ALK2 extracellular domain prepared in Example 14)-1) were measured using Biacore T200 (GE Healthcare Bio-Sciences Corp., Japan) by the capture method which involves capturing each antibody as a ligand onto an immobilized anti-human IgG (Fc) antibody and assaying the antigen as an analyte. Approximately 1000 RU of the anti-human IgG (Fc) antibody (Human Antibody Capture kit, GE Healthcare Bio-Sciences Corp.) was covalently bound to a sensor chip CM5 (GE Healthcare Bio-Sciences Corp.) by the amine coupling method. Similarly, this antibody was immobilized onto a reference cell. The running buffer used was HBS-EP+(10 mM HEPES (pH 7.4), 0.15 M NaCl, 3 mM EDTA, and 0.05% Surfactant P20). The antibody was added onto the anti-human IgG (Fc) antibody-immobilized chip for approximately 1 minute. Then, serially diluted solutions (0.78 to 200 nM) of the antigen were added thereto at a flow rate of 30 μl/min for 300 seconds. Subsequently, the dissociation phase was monitored for 600 seconds. A 3 M magnesium chloride solution was added thereto as a regenerating solution at a flow rate of 10 μl/min for 30 seconds. The data was analyzed using 1:1 binding models of analytical software (BIAevaluation software, version 1.0) to calculate an association rate constant ka, a dissociation rate constant kd, and a dissociation constant (KD; KD=kd/ka).

For B1, which Kd is on record?
The Kd was 13.6 nM.

Which Kd does the source give for B2 here?
The Kd was 13.3 nM.

B3 was tested. Which Kd did it give?
Its Kd is 17.4 nM.

Source: US20220041738A1 (SAITAMA MEDICAL UNIVERSITY, published 2022)
